Reference: patent US20220204580A1 (AstraZeneca / MedImmune, published 2022)
Numbered stars: 1 amine (or outer) side, 2 acyl side, 3 side chain; on linkers, the order of the positions; unused ones are H or OH. Bridge positions count the residues as written; N and C are the ends. Square brackets hold non-standard residues; d marks the D form. Side chains are listed from the residue outwards. Ends that are not written are not given here. * marks the point of attachment. C18 diacid = O=C(O)CCCCCCCCCCCCCCCCC(=O)*; γGlu = O=C(O)[C@H](CCC(=O)[*:2])N[*:1]; αMeF = C[C@](N)(Cc1ccccc1)C(=O)O; Aib = CC(C)(N)C(=O)O

B1: Peptide 11 (SEQ ID NO: 11) (peptide)
peptide: K([γGlu-γGlu-C18 diacid])CNTATCATQRLAEFLRHSSNN[αMeF]GPILPPTNVGSNTY-NH2
modifications: disulfide 2-7; N-terminus assumed
SMILES: CC[C@H](C)[C@H](NC(=O)[C@@H]1CCCN1C(=O)CNC(=O)[C@](C)(Cc1ccccc1)NC(=O)[C@H](CC(N)=O)NC(=O)[C@H](CC(N)=O)NC(=O)[C@H](CO)NC(=O)[C@H](CO)NC(=O)[C@H](Cc1c[nH]cn1)NC(=O)[C@H](CCCNC(=N)N)NC(=O)[C@H](CC(C)C)NC(=O)[C@H](Cc1ccccc1)NC(=O)[C@H](CCC(=O)O)NC(=O)[C@H](C)NC(=O)[C@H](CC(C)C)NC(=O)[C@H](CCCNC(=N)N)NC(=O)[C@H](CCC(N)=O)NC(=O)[C@@H](NC(=O)[C@H](C)NC(=O)[C@@H]1CSSC[C@H](NC(=O)[C@@H](N)CCCCNC(=O)CC[C@H](NC(=O)CC[C@H](NC(=O)CCCCCCCCCCCCCCCCC(=O)O)C(=O)O)C(=O)O)C(=O)N[C@@H](CC(N)=O)C(=O)N[C@@H]([C@@H](C)O)C(=O)N[C@@H](C)C(=O)N[C@@H]([C@@H](C)O)C(=O)N1)[C@@H](C)O)C(=O)N[C@@H](CC(C)C)C(=O)N1CCC[C@H]1C(=O)N1CCC[C@H]1C(=O)N[C@H](C(=O)N[C@@H](CC(N)=O)C(=O)N[C@H](C(=O)NCC(=O)N[C@@H](CO)C(=O)N[C@@H](CC(N)=O)C(=O)N[C@H](C(=O)N[C@@H](Cc1ccc(O)cc1)C(N)=O)[C@@H](C)O)C(C)C)[C@@H](C)O
B2: Peptide 99 (SEQ ID NO: 99) (peptide)
peptide: K([γGlu-C18 diacid])KCNTATCATQRLANFL[Aib]HSSNNFGPILPPTN[Aib]GSNTY-NH2
modifications: disulfide 3-8; N-terminus assumed
SMILES: CC[C@H](C)[C@H](NC(=O)[C@@H]1CCCN1C(=O)CNC(=O)[C@H](Cc1ccccc1)NC(=O)[C@H](CC(N)=O)NC(=O)[C@H](CC(N)=O)NC(=O)[C@H](CO)NC(=O)[C@H](CO)NC(=O)[C@H](Cc1c[nH]cn1)NC(=O)C(C)(C)NC(=O)[C@H](CC(C)C)NC(=O)[C@H](Cc1ccccc1)NC(=O)[C@H](CC(N)=O)NC(=O)[C@H](C)NC(=O)[C@H](CC(C)C)NC(=O)[C@H](CCCNC(=N)N)NC(=O)[C@H](CCC(N)=O)NC(=O)[C@@H](NC(=O)[C@H](C)NC(=O)[C@@H]1CSSC[C@H](NC(=O)[C@H](CCCCN)NC(=O)[C@@H](N)CCCCNC(=O)CC[C@H](NC(=O)CCCCCCCCCCCCCCCCC(=O)O)C(=O)O)C(=O)N[C@@H](CC(N)=O)C(=O)N[C@@H]([C@@H](C)O)C(=O)N[C@@H](C)C(=O)N[C@@H]([C@@H](C)O)C(=O)N1)[C@@H](C)O)C(=O)N[C@@H](CC(C)C)C(=O)N1CCC[C@H]1C(=O)N1CCC[C@H]1C(=O)N[C@H](C(=O)N[C@@H](CC(N)=O)C(=O)NC(C)(C)C(=O)NCC(=O)N[C@@H](CO)C(=O)N[C@@H](CC(N)=O)C(=O)N[C@H](C(=O)N[C@@H](Cc1ccc(O)cc1)C(N)=O)[C@@H](C)O)[C@@H](C)O
B3: Peptide 98 (SEQ ID NO: 98) (peptide)
peptide: K([γGlu-C18 diacid])KCNTATCATQRLANFL[Aib]HSSNNFGPILPPT[Aib]VGSNTY-NH2
modifications: disulfide 3-8; N-terminus assumed
SMILES: CC[C@H](C)[C@H](NC(=O)[C@@H]1CCCN1C(=O)CNC(=O)[C@H](Cc1ccccc1)NC(=O)[C@H](CC(N)=O)NC(=O)[C@H](CC(N)=O)NC(=O)[C@H](CO)NC(=O)[C@H](CO)NC(=O)[C@H](Cc1c[nH]cn1)NC(=O)C(C)(C)NC(=O)[C@H](CC(C)C)NC(=O)[C@H](Cc1ccccc1)NC(=O)[C@H](CC(N)=O)NC(=O)[C@H](C)NC(=O)[C@H](CC(C)C)NC(=O)[C@H](CCCNC(=N)N)NC(=O)[C@H](CCC(N)=O)NC(=O)[C@@H](NC(=O)[C@H](C)NC(=O)[C@@H]1CSSC[C@H](NC(=O)[C@H](CCCCN)NC(=O)[C@@H](N)CCCCNC(=O)CC[C@H](NC(=O)CCCCCCCCCCCCCCCCC(=O)O)C(=O)O)C(=O)N[C@@H](CC(N)=O)C(=O)N[C@@H]([C@@H](C)O)C(=O)N[C@@H](C)C(=O)N[C@@H]([C@@H](C)O)C(=O)N1)[C@@H](C)O)C(=O)N[C@@H](CC(C)C)C(=O)N1CCC[C@H]1C(=O)N1CCC[C@H]1C(=O)N[C@H](C(=O)NC(C)(C)C(=O)N[C@H](C(=O)NCC(=O)N[C@@H](CO)C(=O)N[C@@H](CC(N)=O)C(=O)N[C@H](C(=O)N[C@@H](Cc1ccc(O)cc1)C(N)=O)[C@@H](C)O)C(C)C)[C@@H](C)O
B4: Peptide 96 (SEQ ID NO: 96) (peptide)
peptide: K([γGlu-C18 diacid])KCNTATCATQRLANFL[Aib]HSSNNFGPIL[Aib]PTNVGSNTY-NH2
modifications: disulfide 3-8; N-terminus assumed
SMILES: CC[C@H](C)[C@H](NC(=O)[C@@H]1CCCN1C(=O)CNC(=O)[C@H](Cc1ccccc1)NC(=O)[C@H](CC(N)=O)NC(=O)[C@H](CC(N)=O)NC(=O)[C@H](CO)NC(=O)[C@H](CO)NC(=O)[C@H](Cc1c[nH]cn1)NC(=O)C(C)(C)NC(=O)[C@H](CC(C)C)NC(=O)[C@H](Cc1ccccc1)NC(=O)[C@H](CC(N)=O)NC(=O)[C@H](C)NC(=O)[C@H](CC(C)C)NC(=O)[C@H](CCCNC(=N)N)NC(=O)[C@H](CCC(N)=O)NC(=O)[C@@H](NC(=O)[C@H](C)NC(=O)[C@@H]1CSSC[C@H](NC(=O)[C@H](CCCCN)NC(=O)[C@@H](N)CCCCNC(=O)CC[C@H](NC(=O)CCCCCCCCCCCCCCCCC(=O)O)C(=O)O)C(=O)N[C@@H](CC(N)=O)C(=O)N[C@@H]([C@@H](C)O)C(=O)N[C@@H](C)C(=O)N[C@@H]([C@@H](C)O)C(=O)N1)[C@@H](C)O)C(=O)N[C@@H](CC(C)C)C(=O)NC(C)(C)C(=O)N1CCC[C@H]1C(=O)N[C@H](C(=O)N[C@@H](CC(N)=O)C(=O)N[C@H](C(=O)NCC(=O)N[C@@H](CO)C(=O)N[C@@H](CC(N)=O)C(=O)N[C@H](C(=O)N[C@@H](Cc1ccc(O)cc1)C(N)=O)[C@@H](C)O)C(C)C)[C@@H](C)O
B5: Peptide 97 (SEQ ID NO: 97) (peptide)
peptide: K([γGlu-C18 diacid])KCNTATCATQRLANFL[Aib]HSSNNFGPILP[Aib]TNVGSNTY-NH2
modifications: disulfide 3-8; N-terminus assumed
SMILES: CC[C@H](C)[C@H](NC(=O)[C@@H]1CCCN1C(=O)CNC(=O)[C@H](Cc1ccccc1)NC(=O)[C@H](CC(N)=O)NC(=O)[C@H](CC(N)=O)NC(=O)[C@H](CO)NC(=O)[C@H](CO)NC(=O)[C@H](Cc1c[nH]cn1)NC(=O)C(C)(C)NC(=O)[C@H](CC(C)C)NC(=O)[C@H](Cc1ccccc1)NC(=O)[C@H](CC(N)=O)NC(=O)[C@H](C)NC(=O)[C@H](CC(C)C)NC(=O)[C@H](CCCNC(=N)N)NC(=O)[C@H](CCC(N)=O)NC(=O)[C@@H](NC(=O)[C@H](C)NC(=O)[C@@H]1CSSC[C@H](NC(=O)[C@H](CCCCN)NC(=O)[C@@H](N)CCCCNC(=O)CC[C@H](NC(=O)CCCCCCCCCCCCCCCCC(=O)O)C(=O)O)C(=O)N[C@@H](CC(N)=O)C(=O)N[C@@H]([C@@H](C)O)C(=O)N[C@@H](C)C(=O)N[C@@H]([C@@H](C)O)C(=O)N1)[C@@H](C)O)C(=O)N[C@@H](CC(C)C)C(=O)N1CCC[C@H]1C(=O)NC(C)(C)C(=O)N[C@H](C(=O)N[C@@H](CC(N)=O)C(=O)N[C@H](C(=O)NCC(=O)N[C@@H](CO)C(=O)N[C@@H](CC(N)=O)C(=O)N[C@H](C(=O)N[C@@H](Cc1ccc(O)cc1)C(N)=O)[C@@H](C)O)C(C)C)[C@@H](C)O
B6: Peptide 95 (SEQ ID NO: 95) (peptide)
peptide: K([γGlu-C18 diacid])KCNTATCATQRLANFL[Aib]HSSNNFGPI[Aib]PPTNVGSNTY-NH2
modifications: disulfide 3-8; N-terminus assumed
SMILES: CC[C@H](C)[C@H](NC(=O)[C@@H]1CCCN1C(=O)CNC(=O)[C@H](Cc1ccccc1)NC(=O)[C@H](CC(N)=O)NC(=O)[C@H](CC(N)=O)NC(=O)[C@H](CO)NC(=O)[C@H](CO)NC(=O)[C@H](Cc1c[nH]cn1)NC(=O)C(C)(C)NC(=O)[C@H](CC(C)C)NC(=O)[C@H](Cc1ccccc1)NC(=O)[C@H](CC(N)=O)NC(=O)[C@H](C)NC(=O)[C@H](CC(C)C)NC(=O)[C@H](CCCNC(=N)N)NC(=O)[C@H](CCC(N)=O)NC(=O)[C@@H](NC(=O)[C@H](C)NC(=O)[C@@H]1CSSC[C@H](NC(=O)[C@H](CCCCN)NC(=O)[C@@H](N)CCCCNC(=O)CC[C@H](NC(=O)CCCCCCCCCCCCCCCCC(=O)O)C(=O)O)C(=O)N[C@@H](CC(N)=O)C(=O)N[C@@H]([C@@H](C)O)C(=O)N[C@@H](C)C(=O)N[C@@H]([C@@H](C)O)C(=O)N1)[C@@H](C)O)C(=O)NC(C)(C)C(=O)N1CCC[C@H]1C(=O)N1CCC[C@H]1C(=O)N[C@H](C(=O)N[C@@H](CC(N)=O)C(=O)N[C@H](C(=O)NCC(=O)N[C@@H](CO)C(=O)N[C@@H](CC(N)=O)C(=O)N[C@H](C(=O)N[C@@H](Cc1ccc(O)cc1)C(N)=O)[C@@H](C)O)C(C)C)[C@@H](C)O

What was measured:
[1] = target: T1, human calcitonin receptor (human, UniProt P30988 25-474); test: cell-based or functional assay
T1 sequence (looked up): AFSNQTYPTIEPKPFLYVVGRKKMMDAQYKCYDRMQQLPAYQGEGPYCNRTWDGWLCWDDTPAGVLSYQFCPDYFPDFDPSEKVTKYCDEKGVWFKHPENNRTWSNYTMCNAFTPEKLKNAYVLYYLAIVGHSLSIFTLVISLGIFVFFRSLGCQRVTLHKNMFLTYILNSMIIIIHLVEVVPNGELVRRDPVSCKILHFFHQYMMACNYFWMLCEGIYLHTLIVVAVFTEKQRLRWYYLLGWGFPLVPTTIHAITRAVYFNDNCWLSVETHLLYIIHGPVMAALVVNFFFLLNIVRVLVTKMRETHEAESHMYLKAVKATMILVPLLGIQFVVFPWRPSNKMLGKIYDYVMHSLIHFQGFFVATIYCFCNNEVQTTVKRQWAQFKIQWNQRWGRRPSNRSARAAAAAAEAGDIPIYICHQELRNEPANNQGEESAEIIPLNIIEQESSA

[2] = target: T2, human amylin receptor (calcitonin receptor co-expressed with receptor activity modifying protein, RAMP3) (human, UniProt P30988 25-474; O60896 24-148); test: cell-based or functional assay
T2 sequence (looked up) 1: T1 sequence (looked up)
T2 sequence (looked up) 2: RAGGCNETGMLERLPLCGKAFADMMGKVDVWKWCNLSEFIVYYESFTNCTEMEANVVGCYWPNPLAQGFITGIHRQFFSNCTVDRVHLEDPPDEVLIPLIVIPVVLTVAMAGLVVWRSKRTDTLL

Binder	EC50 (cAMP production) [1]	EC50 (cAMP production) [2]	Ratio (EC50 hCTR / EC50 hAMYR3) [2]
B1	3.64 nM	0.177 nM	21
B2	1.82 nM	3.8 nM	0.5
B3	0.972 nM	0.942 nM	1
B4	0.859 nM	0.556 nM	2
B5	0.944 nM	0.684 nM	1
B6	1.17 nM	0.691 nM	2
